Targets include Fyn(h) (human, UniProt P06241 1-537, limits assumed); IRR(h) (human, UniProt P14616 960-1297, limits assumed); MAPK2(h) (human, UniProt P28482 1-360); Arg(h) (human, UniProt P42684 38-1182, limits assumed); PAK3(h) (human, UniProt O75914 1-559, limits assumed); Pim-2(h) (human, UniProt Q9P1W9 1-311); Pim-3(h) (human, UniProt Q86V86 1-326); Aurora-B(h) (human, UniProt Q96GD4 1-344); Pyk2(h) (human, UniProt Q14289 1-1009, limits assumed); ROCK-I(h) (human, UniProt Q13464 17-535); SAPK2b(h) (human, UniProt Q15759 1-364); Src(T341M)(h) (human, UniProt P12931 1-536, limits assumed); STK33(h) (human, UniProt Q9BYT3 1-514, limits assumed); Yes(h) (human, UniProt P07947 1-543, limits assumed); CaMKIIγ(h) (human, UniProt Q13555 1-558, limits assumed).

Assay in all cases: cell-based or functional assay
A further experiment concerns the target T1, GRK7(h) (human, UniProt Q8WTQ7 1-553, limits assumed).
T1 sequence (looked up): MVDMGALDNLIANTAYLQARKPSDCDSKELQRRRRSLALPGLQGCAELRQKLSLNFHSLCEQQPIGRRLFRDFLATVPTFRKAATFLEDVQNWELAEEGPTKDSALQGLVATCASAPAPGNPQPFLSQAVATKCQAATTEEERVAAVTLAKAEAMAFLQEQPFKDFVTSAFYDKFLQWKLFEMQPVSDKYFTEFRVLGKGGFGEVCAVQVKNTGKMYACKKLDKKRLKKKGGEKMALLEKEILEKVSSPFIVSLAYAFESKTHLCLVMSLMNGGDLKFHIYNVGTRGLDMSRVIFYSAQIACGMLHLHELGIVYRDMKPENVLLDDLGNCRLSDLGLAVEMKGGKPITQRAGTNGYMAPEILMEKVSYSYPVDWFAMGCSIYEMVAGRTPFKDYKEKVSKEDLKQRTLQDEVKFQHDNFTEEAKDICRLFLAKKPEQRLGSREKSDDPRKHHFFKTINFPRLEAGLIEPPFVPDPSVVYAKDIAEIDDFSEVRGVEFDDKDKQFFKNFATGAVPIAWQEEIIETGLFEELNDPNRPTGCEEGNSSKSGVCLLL

The next experiment has as its target T2, Haspin(h) (human, UniProt Q8TF76 471-798, limits assumed).
T2 sequence (looked up): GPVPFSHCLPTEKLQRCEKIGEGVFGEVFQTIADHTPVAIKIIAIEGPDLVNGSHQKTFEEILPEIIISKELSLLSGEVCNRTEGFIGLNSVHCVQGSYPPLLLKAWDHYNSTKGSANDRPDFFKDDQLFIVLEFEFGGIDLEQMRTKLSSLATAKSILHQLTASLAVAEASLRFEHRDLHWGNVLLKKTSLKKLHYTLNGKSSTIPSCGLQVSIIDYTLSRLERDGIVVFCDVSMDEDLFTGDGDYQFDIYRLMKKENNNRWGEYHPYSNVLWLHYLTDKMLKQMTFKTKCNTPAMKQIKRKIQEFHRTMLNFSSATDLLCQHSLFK

In another experiment the target is T3, MST1(h) (human, UniProt Q13043 1-487, limits assumed).
T3 sequence (looked up): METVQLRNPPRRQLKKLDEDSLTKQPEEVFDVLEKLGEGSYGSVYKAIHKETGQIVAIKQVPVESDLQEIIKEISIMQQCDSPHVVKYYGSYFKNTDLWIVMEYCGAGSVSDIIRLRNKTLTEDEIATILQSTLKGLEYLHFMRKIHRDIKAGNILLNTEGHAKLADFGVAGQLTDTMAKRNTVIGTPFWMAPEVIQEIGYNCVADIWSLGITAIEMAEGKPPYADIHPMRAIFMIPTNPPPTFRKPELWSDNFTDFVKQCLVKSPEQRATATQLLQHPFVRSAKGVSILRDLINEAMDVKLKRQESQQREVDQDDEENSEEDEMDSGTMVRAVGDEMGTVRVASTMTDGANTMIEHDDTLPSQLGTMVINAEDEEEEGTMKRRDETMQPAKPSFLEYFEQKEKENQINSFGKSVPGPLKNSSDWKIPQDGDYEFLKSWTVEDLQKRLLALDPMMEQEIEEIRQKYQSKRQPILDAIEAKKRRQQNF

The next experiment has as its target T4, DDR2(h) (human, UniProt Q16832 422-855, limits assumed).
T4 sequence (looked up): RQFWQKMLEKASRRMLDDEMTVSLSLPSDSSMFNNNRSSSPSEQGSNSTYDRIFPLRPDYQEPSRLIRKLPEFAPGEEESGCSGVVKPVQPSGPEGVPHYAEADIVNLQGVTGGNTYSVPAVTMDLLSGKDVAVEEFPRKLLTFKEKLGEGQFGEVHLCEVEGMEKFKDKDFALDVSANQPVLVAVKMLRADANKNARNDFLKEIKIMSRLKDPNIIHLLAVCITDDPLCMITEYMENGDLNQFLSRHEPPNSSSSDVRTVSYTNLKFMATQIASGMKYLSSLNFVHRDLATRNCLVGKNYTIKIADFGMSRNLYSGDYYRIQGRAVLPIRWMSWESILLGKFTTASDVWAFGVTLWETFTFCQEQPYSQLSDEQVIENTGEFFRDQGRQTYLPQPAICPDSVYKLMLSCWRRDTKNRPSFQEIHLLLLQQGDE

Results on two molecules are retold here after patent publication US20160200782A1 (MOERAE MATRIX, published 2016).
Note: test concentration or dose not given here.

In the case of FAKLAARLYRKALARQLGVAA [MMI-0300], the “% activity” value with Fyn(h) is 74%; with GRK7(h) it was 122%; with Haspin(h), 48%; with IRR(h), 8%; in the experiment with MAPK2(h), 98%; in the experiment with Arg(h) it was 72%. The “% activity” value amounted to 14% with MST1(h); 140% with PAK3(h); 76% with Pim-2(h); 80% with Pim-3(h); 128% with Aurora-B(h); 47% with Pyk2(h). Also, the “% activity” value came out at 79% in the experiment with ROCK-I(h); 81% with SAPK2b(h); 70% with Src(T341M)(h); 45% with STK33(h); 67% in the experiment with Yes(h); 5% in the experiment with CaMKIIγ(h). Moreover, in the experiment with DDR2(h), the “% activity” value amounted to 94%.
As to KAFAKLAARLYRKALARQLGVAA [MMI-0400], the “% activity” value in the experiment with Fyn(h) turned out to be 54%; in the experiment with GRK7(h) it was 100%; in the experiment with Haspin(h) it was 36%; with IRR(h), 8%; with MAPK2(h), 93%; with Arg(h), 84%. For the same molecule, the “% activity” value in the experiment with MST1(h) was determined as 6%; in the experiment with PAK3(h), 121%; in the experiment with Pim-2(h), 92%; with Pim-3(h), 80%; in the experiment with Aurora-B(h), 150%; with Pyk2(h), 34%. Besides, the “% activity” value was determined as 73% with ROCK-I(h); 82% in the experiment with SAPK2b(h); 76% with Src(T341M)(h); 52% with STK33(h); 14% with Yes(h); 3% with CaMKIIγ(h). Moreover, in the experiment with DDR2(h), the “% activity” value is 95%.
